Changes are numbered by the printed parent chain. Values belong to the binder of their own block, whether it stands above or below them.
How the values were obtained:
[1] = target: T1, recombinant soluble human IL-6 receptor (SR344) (human, UniProt P08887 20-344); experiment: SPR Biacore T100, 37C; antibody captured on protein A/G chip, SR344 analyte; pH 5.8 vs pH 7.4
T1 construct: In the membrane-type IL-6 receptor assays the same protein was biotinylated and immobilised on the sensor chip via streptavidin, as stated under assay; also called soluble IL-6 receptor; membrane-type IL-6 receptor (as biotinylated SR344 immobilised on the chip)
T1 sequence (looked up): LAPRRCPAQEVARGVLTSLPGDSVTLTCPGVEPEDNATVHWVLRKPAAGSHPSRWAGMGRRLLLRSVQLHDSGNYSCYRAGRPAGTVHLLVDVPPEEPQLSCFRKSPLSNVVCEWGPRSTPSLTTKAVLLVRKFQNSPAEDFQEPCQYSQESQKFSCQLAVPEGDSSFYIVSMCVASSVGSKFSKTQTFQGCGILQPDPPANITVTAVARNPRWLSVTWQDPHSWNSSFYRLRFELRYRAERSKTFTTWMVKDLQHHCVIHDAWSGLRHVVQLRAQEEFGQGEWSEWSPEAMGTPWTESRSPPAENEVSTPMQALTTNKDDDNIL
Description: Kinetic analyses of antigen-antibody reactions at pH 5.8 and pH 7.4 were carried out using a Biacore™ T100 surface plasmon resonance system (GE Healthcare) on the four antibodies: humanized PM1 antibody (WT) and H3pI/L73, CLH5/L73, and H170/L82 produced in Examples 2 and 4 (buffer: 10 mM MES (pH 7.4 or pH 5.8), 150 mM NaCl, and 0.05% TWEEN® 20 (polyoxyethelene sorbitan monolaurate)). Various antibodies were bound onto a sensor chip immobilized with recomb-protein A/G (Pierce) by amine coupling. SR344 adjusted to concentrations of 9.8 to 400 nM was injected to the chip as an analyte. […] All the measurements were carried out at 37° C. Association rate constants kₐ (1/Ms) and dissociation rate constants kd (1/s) were calculated using Biacore T100™ Evaluation Software (GE Healthcare), and dissociation constants KD (M) were calculated on the basis of those values (Table 5). Moreover, the ratio of the affinities at pH 5.8 and pH 7.4 were calculated for each clone to evaluate pH-dependent binding. All the measurements were carried out at 37° C.

[2] = target: T2, soluble mouse IL-31 receptor (mouse, UniProt Q8K5B1 19-499); experiment: SPR Biacore T100, 25C, pH 5.5; antibody captured on protein A/G chip, soluble mouse IL-31 receptor analyte; pH 5.5
T2 construct: Soluble form
T2 sequence (looked up): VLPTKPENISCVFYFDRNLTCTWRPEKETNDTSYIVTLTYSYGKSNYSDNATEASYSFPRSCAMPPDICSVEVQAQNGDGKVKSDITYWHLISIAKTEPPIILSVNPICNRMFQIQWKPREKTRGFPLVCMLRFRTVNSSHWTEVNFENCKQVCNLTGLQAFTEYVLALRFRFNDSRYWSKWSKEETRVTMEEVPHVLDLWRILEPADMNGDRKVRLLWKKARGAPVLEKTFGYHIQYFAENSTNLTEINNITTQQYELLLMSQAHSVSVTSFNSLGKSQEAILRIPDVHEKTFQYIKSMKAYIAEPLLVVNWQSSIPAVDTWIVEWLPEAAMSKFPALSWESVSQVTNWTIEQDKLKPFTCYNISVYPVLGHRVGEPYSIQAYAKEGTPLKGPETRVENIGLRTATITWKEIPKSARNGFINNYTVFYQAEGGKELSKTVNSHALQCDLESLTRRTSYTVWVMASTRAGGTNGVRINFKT
Description: Kinetic analysis of antigen-antibody reactions at pH 5.5 and pH 7.4 was carried out using a Biacore T100™ surface plasmon resonance system (GE Healthcare) for the two types of antibodies prepared as mentioned above: Anti-IL31R wild type and Anti-IL31R clone 1 (buffer: DPBS(−) (pH 7.4 or pH 5.5), 150 mM NaCl, 0.01% TWEEN® 20 (polyoxyethelene sorbitan monolaurate), 0.02% NaN₃). The antibodies were bound to a sensor chip on which recomb-protein A/G (Pierce) was immobilized by amine coupling, and then the soluble mouse IL-31 receptor (prepared according to the method described in WO 2007/142325) adjusted to an appropriate concentration was injected therein as an analyte. All the measurements were carried out at 25° C. Association rate constants kₐ (1/Ms) and dissociation rate constants kd (1/s) were calculated using Biacore T100™ Evaluation Software (GE Healthcare), and dissociation constants KD (M) were calculated based on those values (Table 16). Furthermore, the ratio of affinity at pH 5.5 and pH 7.4 was calculated for each clone to evaluate the pH-dependent binding.

affinity ratio between pH 5.8 and pH 7.4 [1]: 41 fold
B1: H3pI/L73 (antibody, IgG1, V domains shown)
VH: QVQLQESGPGLVKPSETLSLTCAVSGHSISHDHAHSWVRQPPGEGLEWIGYISYSGITNYNPSLKGRVTISRDTSKNQFSLKLSSVTAADTAAYYCARSLARTTAMDYWGEGTLVTVSS
VL: DIQMTQSPSSLSASVGDSVTITCQASQHISSHLNWYQQKPGKAPELLIYYGSHLHSGVPSRFSGSGSGTDFTFTISSLEAEDAATYYCGQGNRLPYTFGQGTKVEIE
notes: Tested as IgG1; also called H3pI/L73-IgG1; H3pl/L73

affinity ratio between pH 5.8 and pH 7.4 [1]: 66 fold
B2: CLH5/L73 (antibody, IgG1, V domains shown)
VH: B1 VH with H27Y, H35W, Y51H, S63H, S99F, T103I, M106H, Y108H
VL: B1 VL
notes: Expressed and purified as IgG

affinity ratio between pH 5.8 and pH 7.4 [1]: 394 fold
B3: H170/L82 (antibody, IgG1, V domains shown)
VH: B1 VH with D32H, N59H, S63H, S99V, T103I, Y108H
VL: B1 VL with H28D
notes: Tested as IgG1; also called H170/L82-IgG1

kon [2]: 51000 M⁻¹ s⁻¹
B4: Anti-IL31R wild type (antibody, human IgG1, lambda, V domains shown)
VH: not shown
VL: LPVLTQPPSVSVAPGQTARITCGGNNIGSKTVYWYQQEPGQAPVLVVYDDTDRPAGIPERFSGANSGNTATLTISRVEAGDEADYYCQVWDSSTDHGVFGGGTKLTVLG
notes: Antibody described in WO 2007/142325; also called anti-IL-31 receptor antibody H chain (WT)/L chain (WT)
